Laboratory results taken from patent US20190127480A1 (Regeneron, published 2019).
Residue numbers refer to the chain shown, from its start.

T1: soluble heterodimeric hCD3ε/δ.mFc protein (human)
T1 construct: also called soluble human CD3; soluble heterodimeric CD3 protein
T1 chain 1: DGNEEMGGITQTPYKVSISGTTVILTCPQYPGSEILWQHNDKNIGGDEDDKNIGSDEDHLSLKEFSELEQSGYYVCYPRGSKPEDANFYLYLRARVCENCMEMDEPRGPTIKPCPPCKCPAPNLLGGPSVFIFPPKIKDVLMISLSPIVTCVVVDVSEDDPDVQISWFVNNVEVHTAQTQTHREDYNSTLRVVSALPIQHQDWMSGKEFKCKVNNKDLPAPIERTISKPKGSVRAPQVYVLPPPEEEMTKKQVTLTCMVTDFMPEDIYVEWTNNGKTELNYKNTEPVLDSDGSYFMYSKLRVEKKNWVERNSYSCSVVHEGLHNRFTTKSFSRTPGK
T1 chain 2: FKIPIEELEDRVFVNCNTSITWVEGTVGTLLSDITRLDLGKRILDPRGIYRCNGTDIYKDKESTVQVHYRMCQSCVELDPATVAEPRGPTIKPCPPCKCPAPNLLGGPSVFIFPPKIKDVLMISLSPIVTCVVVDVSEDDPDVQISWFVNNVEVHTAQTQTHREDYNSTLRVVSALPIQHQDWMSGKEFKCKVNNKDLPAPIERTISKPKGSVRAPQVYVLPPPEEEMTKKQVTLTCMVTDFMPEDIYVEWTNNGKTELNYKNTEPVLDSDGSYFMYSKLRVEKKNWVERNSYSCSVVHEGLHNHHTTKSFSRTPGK

B1: H1H7242P (antibody, human IgG1, V domains shown)
VH: EVQLVESGGGLVQPGRSLRLSCAASGFTFDDYTMHWVRQGPGKGLEWVSDIGWNSNSIGYADSVKGRFTISRDNAKNSLYLQMNSLRPEDTALYFCVKDKSGYGKFFIGLDVWGQGTMVTVSS
VL: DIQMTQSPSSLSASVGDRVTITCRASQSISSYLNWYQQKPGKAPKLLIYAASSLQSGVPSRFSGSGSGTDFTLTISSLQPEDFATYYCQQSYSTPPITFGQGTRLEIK
notes: Monovalent 1-arm format: second Fab removed, only the Fc portion (CH2-CH3) expressed; human IgG1 Fc; tied by the numerical identifier; also called H1H7242B
B2: H1H7241P (antibody, human IgG1, V domains shown)
VH: B1 VH with D30A, S57T, T69A, F95Y, F107Q, I108Y, M118T
VL: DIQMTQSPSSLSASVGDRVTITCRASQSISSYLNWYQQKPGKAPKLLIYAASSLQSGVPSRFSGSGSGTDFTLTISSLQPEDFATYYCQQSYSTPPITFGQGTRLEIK
notes: Monovalent 1-arm format: second Fab removed, only the Fc portion (CH2-CH3) expressed; human IgG1 Fc; tied by the numerical identifier; also called H1H7241B
B3: H1H7254P (antibody, human IgG1, V domains shown)
VH: B1 VH with L11V, T28K, D31G, S57T
VL: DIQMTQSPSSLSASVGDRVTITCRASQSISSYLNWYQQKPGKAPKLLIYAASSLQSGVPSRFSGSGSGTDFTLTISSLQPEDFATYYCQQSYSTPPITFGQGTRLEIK
notes: Monovalent 1-arm format: second Fab removed, only the Fc portion (CH2-CH3) expressed; human IgG1 Fc; tied by the numerical identifier; also called H1H7254B
B4: H1H7251P (antibody, human IgG1, V domains shown)
VH: EVQLVESGGGLVQPGRSLRLSCAASGFTFADYTMHWVRQGPGTGLEWVSDIGWSGGSLGYADSVKGRFTISRDNAKNSLYLEMNNLRPEDTALYYCVKDKSGYGKFQYGLDVWGQGTTVTVSS
VL: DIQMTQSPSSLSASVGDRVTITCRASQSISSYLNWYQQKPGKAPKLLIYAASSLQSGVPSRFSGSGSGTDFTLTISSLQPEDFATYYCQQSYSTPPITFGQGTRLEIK
notes: Monovalent 1-arm format: second Fab removed, only the Fc portion (CH2-CH3) expressed; human IgG1 Fc; tied by the numerical identifier; also called H1H7251B
B5: H1H7250P (antibody, human IgG1, V domains shown)
VH: B1 VH with E1Q, S57T, I58K
VL: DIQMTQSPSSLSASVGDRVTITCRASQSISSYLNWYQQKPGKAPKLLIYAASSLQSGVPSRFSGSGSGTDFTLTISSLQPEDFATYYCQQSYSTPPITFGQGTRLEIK
notes: Monovalent 1-arm format: second Fab removed, only the Fc portion (CH2-CH3) expressed; human IgG1 Fc; tied by the numerical identifier; also called H1H7250B
B6: H1H7258P (antibody, human IgG1, V domains shown)
VH: B1 VH with E1Q, S57T, K76R, F95Y, F107Q, I108Y, M118T
VL: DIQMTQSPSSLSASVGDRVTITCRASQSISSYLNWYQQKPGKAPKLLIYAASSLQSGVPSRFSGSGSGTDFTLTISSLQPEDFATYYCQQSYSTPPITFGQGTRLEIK
notes: Monovalent 1-arm format: second Fab removed, only the Fc portion (CH2-CH3) expressed; human IgG1 Fc; tied by the numerical identifier; also called H1H7258B
B7: H1H7204P (antibody, human IgG1, V domains shown)
VH: EVQLVESRGALVQPGRSLRLSCAASGFAFNDYTMHWVRQAPGKGLEWVSDISWNSNSKDYADSVKGRFTISRDNAKNSLYLQMNSLRAEDTALYYCVKDGSGYGKFSLYALDVWGQGTTVTVSS
VL: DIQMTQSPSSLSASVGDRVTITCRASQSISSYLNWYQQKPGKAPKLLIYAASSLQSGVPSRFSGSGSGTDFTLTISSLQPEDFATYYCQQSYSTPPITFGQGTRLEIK
notes: Monovalent 1-arm format: second Fab removed, only the Fc portion (CH2-CH3) expressed; human IgG1 Fc; tied by the numerical identifier; also called H1H7204B
B8: H1H7196P (antibody, human IgG1, V domains shown)
VH: EVQLVESGGGMVQPGRSLRLSCAASGFPFNDYTMHWVRQVPGRGLEWVSDISWNSGSKGYADSVKGRFIISRDNAKNSLYLQMNSLRVEDTALYYCVKDGSGYGRFHYYAMDVWGQGTTVTVSS
VL: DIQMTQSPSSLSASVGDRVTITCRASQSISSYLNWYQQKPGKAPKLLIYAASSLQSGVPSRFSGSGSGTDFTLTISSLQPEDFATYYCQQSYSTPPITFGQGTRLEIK
notes: Monovalent 1-arm format: second Fab removed, only the Fc portion (CH2-CH3) expressed; human IgG1 Fc; tied by the numerical identifier; also called H1H7196B
B9: H1H7194P (antibody, human IgG1, V domains shown)
VH: EVQLVESGGGLVQPGRSLRLSCAASGFTFGDYTMHWVRQAPGKGLEWVSDISWNSGSKDYADSVKGRFTISRDNAKNSLYLQMNSLRTEDTAFYYCAKDSRGYGLYYHLGLDVWGQGTTVTVSS
VL: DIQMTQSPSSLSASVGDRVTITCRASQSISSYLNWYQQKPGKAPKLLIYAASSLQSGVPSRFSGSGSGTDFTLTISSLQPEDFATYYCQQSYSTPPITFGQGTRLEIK
notes: Monovalent 1-arm format: second Fab removed, only the Fc portion (CH2-CH3) expressed; human IgG1 Fc; tied by the numerical identifier; also called H1H7194B
B10: H1H7195P (antibody, human IgG1, V domains shown)
VH: B9 VH with G30A, K58I, D59A, L105H, Y107K, H108Y
VL: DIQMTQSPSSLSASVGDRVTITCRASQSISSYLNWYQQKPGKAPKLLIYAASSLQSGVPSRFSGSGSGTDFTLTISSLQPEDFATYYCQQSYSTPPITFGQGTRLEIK
notes: Monovalent 1-arm format: second Fab removed, only the Fc portion (CH2-CH3) expressed; human IgG1 Fc; tied by the numerical identifier; also called H1H7195B
B11: H1H7208P (antibody, human IgG1, V domains shown)
VH: QVQLVESGGGLVHPGRSLRLSCAASGFKFDDYTMHWVRQAPGKGLEWVSDISWNSGSKGYADSVKGRFTISRDNAKDSLYLQMDSLRAADTAFYYCAKDKSGYGHFYYYAMDVWGQGTTVTVSS
VL: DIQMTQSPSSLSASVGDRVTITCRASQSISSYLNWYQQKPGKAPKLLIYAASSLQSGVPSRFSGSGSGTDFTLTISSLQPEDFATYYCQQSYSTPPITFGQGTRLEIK
notes: Monovalent 1-arm format: second Fab removed, only the Fc portion (CH2-CH3) expressed; human IgG1 Fc; tied by the numerical identifier; also called H1H7208B
B12: H1H7226P (antibody, human IgG1, V domains shown)
VH: EVQLVQSGGGLVQPGRSLRLSCAASGFTFSDYTMHWVRQGPGKGLEWVSDISWNSGSKGYTDSVKGRFTISRDNAKKSLYLQMNSLRAEDTALYYCVKDGSGYGKYHFYAMDVWGQGTLVTVSS
VL: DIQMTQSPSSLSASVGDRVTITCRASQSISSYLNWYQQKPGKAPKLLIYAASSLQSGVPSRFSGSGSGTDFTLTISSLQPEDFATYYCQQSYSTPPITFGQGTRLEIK
notes: Monovalent 1-arm format: second Fab removed, only the Fc portion (CH2-CH3) expressed; human IgG1 Fc; tied by the numerical identifier; also called H1H7226B
B13: H1H7232P (antibody, human IgG1, V domains shown)
VH: B11 VH with Q1E, K28T, K58R, K76E, D77N, D84N, A89E, F93L, F106Y
VL: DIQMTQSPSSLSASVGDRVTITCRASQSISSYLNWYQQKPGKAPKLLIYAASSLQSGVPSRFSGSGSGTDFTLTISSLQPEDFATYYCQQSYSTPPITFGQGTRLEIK
notes: Monovalent 1-arm format: second Fab removed, only the Fc portion (CH2-CH3) expressed; human IgG1 Fc; tied by the numerical identifier; also called H1H7232B
B14: H1H7233P (antibody, human IgG1, V domains shown)
VH: EVQLVESGGGLVQPGGSLRLSCEASGFTFADYTLHWVRQAPGKGLEWVSDISWNSGTRGYADSVRGRFTISRDNAKKSLYLQMNSLRSEDTALYYCVKDGSGYGRYNFYAMDVWGQGTTVTVSS
VL: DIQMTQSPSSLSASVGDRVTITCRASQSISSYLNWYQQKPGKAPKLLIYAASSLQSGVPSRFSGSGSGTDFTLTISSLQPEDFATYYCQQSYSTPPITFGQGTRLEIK
notes: Monovalent 1-arm format: second Fab removed, only the Fc portion (CH2-CH3) expressed; human IgG1 Fc; tied by the numerical identifier; also called H1H7233B
B15: BSPSMA/CD3-1200 (bispecific antibody, IgG4, V domains shown)
VH 1: QVQLVESGGGVVQPGRSLRLSCAASGFTFSSYGMHWVRQAPGKGLEWVAVISYAGNNKYYADSVKGRFTVSRDNSKKTLYLQMNSLRSEDTAVYYCAKDSYYDFLTDPDVLDIWGQGTMVTVSS
VH 2: EVQLVESGGGLVQPGRSLRLSCAASGFTFDDYSMHWVRQAPGKGLEWVSGISWNSGSIGYADSVKGRFTISRDNAKNSLYLQMNSLRAEDTALYYCAKDGSGYGKFYHYGLDVWGQGTTVTVSS
VL: DIQMTQSPSSLSASVGDSVTITCRASQSINNYLNWYQQKPGKAPKLLIYTASSLLSGVPSRFSGSGSGTDFTLTISGLHPEDFATYFCQQSFSTPPITFGQGTRLDIK
notes: modified (chimeric) IgG4 Fc domain; also called PSMA-VH-11810 x CD3-VH-G12
B16: H1H7221P (antibody, human IgG1, V domains shown)
VH: B15 VH 2 with A23V, I58K, G59D, D99Y
VL: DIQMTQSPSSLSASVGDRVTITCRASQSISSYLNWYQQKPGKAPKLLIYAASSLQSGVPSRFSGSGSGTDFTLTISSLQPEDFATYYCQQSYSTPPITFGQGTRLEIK
notes: Monovalent 1-arm format: second Fab removed, only the Fc portion (CH2-CH3) expressed; human IgG1 Fc; tied by the numerical identifier; also called H1H7221B
B17: BSPSMA/CD3-1500 (bispecific antibody, IgG4, V domains shown)
VH 1: B15 VH 1
VH 2: B15 VH 2 with I58K, H108Y
VL: B15 VL
notes: modified (chimeric) IgG4 Fc domain; also called PSMA-VH-11810 x CD3-VH-G15

Columns and labels:
[1] = molecular target: cynomolgus monkey CD3 expressed on monkey T-cells (PBMCs) (cynomolgus monkey, UniProt Q95LI5 22-198; Q95LI8 22-171); experiment: cell-based or functional assay
Chain of cynomolgus monkey CD3 expressed on monkey T-cells (PBMCs) (Q95LI5 22-198, chain 1 of 2): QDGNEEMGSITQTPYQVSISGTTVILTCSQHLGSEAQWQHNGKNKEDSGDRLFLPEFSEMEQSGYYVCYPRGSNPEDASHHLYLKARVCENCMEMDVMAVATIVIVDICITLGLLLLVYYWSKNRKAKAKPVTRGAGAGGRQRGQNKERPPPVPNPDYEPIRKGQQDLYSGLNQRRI
Chain of cynomolgus monkey CD3 expressed on monkey T-cells (PBMCs) (Q95LI8 22-171, chain 2 of 2): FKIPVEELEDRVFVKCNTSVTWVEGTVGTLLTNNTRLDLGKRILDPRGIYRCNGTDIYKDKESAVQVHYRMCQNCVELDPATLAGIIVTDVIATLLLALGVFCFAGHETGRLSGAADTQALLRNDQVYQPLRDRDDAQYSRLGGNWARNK

[2] = molecular target: T2, human CD3 expressed on cells (Jurkat cells; human T-cells of PBMC) (human, UniProt P09693 23-182; P20963 22-164); experiment: cell-based or functional assay
T2 sequence (chain, as listed by the source, chain 1 of 4): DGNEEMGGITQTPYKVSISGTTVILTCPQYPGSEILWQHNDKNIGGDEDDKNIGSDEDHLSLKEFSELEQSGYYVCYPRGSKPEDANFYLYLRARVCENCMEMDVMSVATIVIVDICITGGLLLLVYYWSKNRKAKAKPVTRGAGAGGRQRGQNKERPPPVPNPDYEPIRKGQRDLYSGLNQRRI
T2 sequence (chain, as listed by the source, chain 2 of 4): as the sequence (Q95LI8 22-171, chain 2 of 2) above, with V5I, K15N, V20I, T32S, N33D, N34I, A64T, N74S, L83V, R141H counted along it
T2 sequence (P09693 23-182, chain 3 of 4): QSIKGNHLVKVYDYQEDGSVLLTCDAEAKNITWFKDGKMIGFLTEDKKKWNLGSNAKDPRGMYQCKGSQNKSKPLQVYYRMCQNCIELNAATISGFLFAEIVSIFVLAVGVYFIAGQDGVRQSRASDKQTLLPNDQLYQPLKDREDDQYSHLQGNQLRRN
T2 sequence (P20963 22-164, chain 4 of 4): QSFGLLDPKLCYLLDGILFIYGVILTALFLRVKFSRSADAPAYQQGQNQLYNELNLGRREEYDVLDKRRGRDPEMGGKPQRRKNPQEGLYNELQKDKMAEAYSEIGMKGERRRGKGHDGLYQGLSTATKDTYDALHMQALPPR

[3] = molecular target: T2, human CD3 expressed on cells (Jurkat …); experiment: FACS titration on Jurkat cells, monovalent 1-arm antibody
Method: FACS data was acquired using the following protocol: Cells at 2×10⁵ per well were incubated with serially diluted antibodies for 30 min on ice. Post incubation, cells were washed and secondary antibody was added and incubated for an additional 30 minutes. After incubation, cells were washed, re-suspended in cold PBS containing 1% BSA and analyzed by flow cytometry with viable Jurkat cells gated by side and forward scatters. The EC₅₀s for cell binding titration were determined using Prism software with values calculated using a 4-parameter non-linear regression analysis.

[4] = molecular target: T2, human CD3 expressed on cells (Jurkat …); experiment: cell-based or functional assay; remark: listed apart in the source
[5] = molecular target: T3, human PSMA on PSMA-expressing cells (human, UniProt Q04609 1-750); experiment: FACS on B16F10.9/PSMA cells
T3 construct: Cell line is named under assay or readout in each row; also called B16F10.9/hPSMA; B16F10.9/PSMA
T3 sequence (Q04609 whole entry): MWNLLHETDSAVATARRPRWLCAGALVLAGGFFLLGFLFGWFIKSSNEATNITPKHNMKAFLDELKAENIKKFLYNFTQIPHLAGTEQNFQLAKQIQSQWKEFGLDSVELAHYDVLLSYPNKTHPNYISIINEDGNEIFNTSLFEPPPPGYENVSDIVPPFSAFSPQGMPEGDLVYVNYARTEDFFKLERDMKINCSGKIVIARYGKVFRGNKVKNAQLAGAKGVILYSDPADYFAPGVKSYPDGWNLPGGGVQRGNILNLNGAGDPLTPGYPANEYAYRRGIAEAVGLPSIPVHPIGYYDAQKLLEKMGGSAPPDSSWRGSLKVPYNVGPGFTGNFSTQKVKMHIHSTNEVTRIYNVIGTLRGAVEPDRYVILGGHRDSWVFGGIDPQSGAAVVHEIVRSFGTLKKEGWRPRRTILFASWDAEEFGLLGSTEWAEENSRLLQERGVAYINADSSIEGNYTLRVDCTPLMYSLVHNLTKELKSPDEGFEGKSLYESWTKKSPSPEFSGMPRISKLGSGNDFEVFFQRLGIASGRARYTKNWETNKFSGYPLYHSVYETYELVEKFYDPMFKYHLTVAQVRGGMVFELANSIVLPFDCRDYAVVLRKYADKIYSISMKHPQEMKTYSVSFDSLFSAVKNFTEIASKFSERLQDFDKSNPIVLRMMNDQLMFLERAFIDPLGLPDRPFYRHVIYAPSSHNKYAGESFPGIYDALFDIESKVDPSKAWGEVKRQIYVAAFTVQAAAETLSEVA
Method: (§1) Briefly, 2×10⁵ cells/well of human CD3-expressing Jurkat, cynomolgus T, or human PSMA-specific expressing cells were incubated with a serial dilution of bispecific antibodies for 30 min at 4° C. After incubation, cells were washed and a goat F(ab′)₂ anti-human Fcγ PE labeled secondary (Jackson Immunolabs) was added to the cells for an additional 30 min. Next, cells were washed, re-suspended in cold PBS+1% BSA and analyzed via flow cytometry on a BD FACS Canto II.
(§2) For FACS analysis, cells were gated by forward scatter height vs. forward scatter area for single events selection, followed by side and forward scatters. The EC₅₀ for cell binding titration was determined using Prism software. Values were calculated using 4-parameter non-linear regression analysis.

[6] = molecular target: T4, human CD3 on CD3-expressing cells (Jurkat, human T cells) (human, UniProt P07766 23-207; P04234 22-171); experiment: FACS on Jurkat cells
T4 construct: On cells CD3 stands within the T cell receptor complex (also gamma and zeta chains); also called human CD3 expressing Jurkat cells
T4 sequence (P07766 23-207 limits assumed, chain 1 of 2): as the sequence (chain, as listed by the source, chain 1 of 4) above
T4 sequence (P04234 22-171 limits assumed, chain 2 of 2): as the sequence (Q95LI8 22-171, chain 2 of 2) above, with V5I, K15N, V20I, T32S, N33D, N34I, A64T, N74S, L83V, R141H counted along it
Method: as §1, §2

[7] = molecular target: T1, soluble heterodimeric hCD3ε/δ.mFc …; experiment: SPR MASS-1, 37 C, antigen-capture (hCD3ε/δ.mFc captured), antibody injected
Method: Measurements were conducted on a Sierra Sensors MASS-1 instrument.
In the antigen-capture format, the MASS-1 high-density amine sensor surface was derivatized with a goat anti-mouse IgG2a polyclonal antibody (Southern Biotech). Soluble heterodimeric CD3 protein was captured and the respective antibodies were injected over the captured antigen.
Kinetic association (kₐ) and dissociation (kd) rate constants were determined by processing and fitting the data to a 1:1 binding model using MASS-1 AnalyserR2 curve fitting software. Binding dissociation equilibrium constants (KD) and dissociative half-lives (t_{1/2}) were calculated from the kinetic rate constants as: KD (M)=kd/kₐ; and t_{1/2} (min)=(ln 2/(60*kd).

Binder	EC50 [M] mfPBMC Proliferation [1] [M]	EC50 [M] hPBMC Proliferation [2] [M]	EC50 [3] [pM]	U937 Cytotoxicity Human T-cells [4] [pM]	EC50 [5] [pM]	EC50 [6] [pM]	Kd [7] [pM]	T½ [7] [min]	koff [7] [s⁻¹]	kon [7] [M⁻¹ s⁻¹]
B1	1.38e-11	2.13e-12	1830	7.5						
B2	2.05e-11	1.05e-12	1010	12.3						
B3	8.88e-11	2.8e-12	1090	4.18						
B4	1.83e-11	1.3e-12	1450	1.81						
B5	7.27e-11	2.43e-12	1370	5.91						
B6	1.11e-11	2.17e-12	1070	15.3						
B7	1.26e-11	1.51e-12	2290	10.8						
B8	1.4e-08	1.27e-12	34400	19.6						
B9	4.84e-12	2.37e-12	1500	4.71						
B10	1.36e-12	2.42e-12	342	6.1						
B11	7.02e-12	1.46e-12	51900	45.9						
B12	2.26e-11	9.52e-13	795	10.4						
B13	4.9e-11	1.03e-12	1500	9.96						
B14	4.35e-12	7.34e-13	715	11.9						
B15					1160	47200	64200	4.7	0.00247	38500
B16	1.72e-12	2.6e-12	1400	9.21						
B17					1210	93000	82900	1.9	0.00611	73600
